# From paper PMC2199204
# Target: DGKζ with a FLAG epitope tag at its COOH terminus (DGKζ-FLAG) (human)
# Experiment: co-IP
# Sequence of DGKζ with a FLAG epitope tag at its COOH terminus (DGKζ-FLAG) (human) (Q13574 whole entry): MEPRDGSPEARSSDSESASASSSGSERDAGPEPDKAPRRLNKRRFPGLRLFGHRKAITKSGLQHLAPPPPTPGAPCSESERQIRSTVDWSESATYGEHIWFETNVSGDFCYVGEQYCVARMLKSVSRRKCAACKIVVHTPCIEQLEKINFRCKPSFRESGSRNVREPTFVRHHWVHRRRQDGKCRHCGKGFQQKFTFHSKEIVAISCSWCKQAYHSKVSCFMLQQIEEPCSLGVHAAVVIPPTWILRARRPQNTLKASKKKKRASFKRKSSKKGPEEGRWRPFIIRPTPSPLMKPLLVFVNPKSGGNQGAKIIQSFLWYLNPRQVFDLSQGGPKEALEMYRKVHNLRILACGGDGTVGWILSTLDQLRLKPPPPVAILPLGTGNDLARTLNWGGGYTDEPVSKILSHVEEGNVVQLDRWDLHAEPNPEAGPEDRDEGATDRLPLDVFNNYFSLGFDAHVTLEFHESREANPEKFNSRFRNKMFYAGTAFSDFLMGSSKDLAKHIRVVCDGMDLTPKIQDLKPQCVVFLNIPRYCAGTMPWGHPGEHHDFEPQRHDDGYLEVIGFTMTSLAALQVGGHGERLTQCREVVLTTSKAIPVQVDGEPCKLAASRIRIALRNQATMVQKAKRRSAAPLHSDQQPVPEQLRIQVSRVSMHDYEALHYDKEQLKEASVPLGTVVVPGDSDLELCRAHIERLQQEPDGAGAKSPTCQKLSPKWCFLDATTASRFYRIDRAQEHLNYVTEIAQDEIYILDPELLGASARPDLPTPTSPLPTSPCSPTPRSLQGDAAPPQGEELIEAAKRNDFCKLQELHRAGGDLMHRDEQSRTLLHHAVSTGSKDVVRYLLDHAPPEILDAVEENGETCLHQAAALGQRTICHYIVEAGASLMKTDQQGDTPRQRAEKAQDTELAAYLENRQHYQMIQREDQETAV
# Sequence of RasGRP with an NH2-terminal HA epitope tag (HA-RasGRP) (O95267 whole entry): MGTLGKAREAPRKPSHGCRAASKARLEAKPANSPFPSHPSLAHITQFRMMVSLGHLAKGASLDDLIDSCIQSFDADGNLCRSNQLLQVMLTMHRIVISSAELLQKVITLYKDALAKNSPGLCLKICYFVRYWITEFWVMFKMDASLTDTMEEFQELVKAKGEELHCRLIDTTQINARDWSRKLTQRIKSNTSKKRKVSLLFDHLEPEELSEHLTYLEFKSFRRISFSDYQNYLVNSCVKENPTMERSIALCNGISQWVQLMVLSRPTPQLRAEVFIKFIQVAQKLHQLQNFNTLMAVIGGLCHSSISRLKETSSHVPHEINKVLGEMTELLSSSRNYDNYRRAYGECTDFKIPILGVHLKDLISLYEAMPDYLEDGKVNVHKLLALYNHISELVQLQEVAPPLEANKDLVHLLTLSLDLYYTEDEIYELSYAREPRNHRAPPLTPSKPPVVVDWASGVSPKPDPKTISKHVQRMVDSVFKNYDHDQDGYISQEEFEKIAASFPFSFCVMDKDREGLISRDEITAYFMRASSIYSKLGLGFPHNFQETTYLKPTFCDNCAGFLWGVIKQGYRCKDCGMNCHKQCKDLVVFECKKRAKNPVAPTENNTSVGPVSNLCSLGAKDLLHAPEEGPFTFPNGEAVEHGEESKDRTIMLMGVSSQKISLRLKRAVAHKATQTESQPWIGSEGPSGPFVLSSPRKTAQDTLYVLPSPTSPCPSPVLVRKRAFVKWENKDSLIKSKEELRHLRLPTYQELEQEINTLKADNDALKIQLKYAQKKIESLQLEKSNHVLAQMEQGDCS
row,Substance,percent coprecipitated [%]
1,A15-H-Ras (from UniProt P01112 1-189) (natural protein),> 20
2,RasGRP with an NH2-terminal HA epitope tag (HA-RasGRP) (from UniProt O95267 1-797) (natural protein),> 20
